# Target: bacteriophage P2 of Lactococcus lactis
# Assay: cell-based or functional assay
binder,measurement,value
VHH#1 (VHH) VHH: QVQLQESGGGLVQAGGSLRLSCTASRRTGSNWCMGWFRQLAGKEPELVVALNFDYDMTYYADSVKGRFTVSRDSGKNTVYLQMNSLKPEDTAIYYCAARSGGFSSNRELYDGWGQGTQVTVSS,neutralisation in microtiter acidification assay (lowest effective concentration),47 ng/mL
same,reduction in the phage titre (plaque titration on L. lactis LM0230),> 99%
